Test [1] addresses HSV-1 glycoprotein B ectodomain lacking the membrane proximal region, gB730t (residues 31-730) (herpes simplex virus type 1 (HSV-1)) (UniProt P06437). The experiment in a line: cryo-EM projection images; SEC fraction 22 (run without detergent) embedded in vitreous ice on holey carbon grids.
Test [2] has the same target. As to the kind of experiment: negative stain EM; SEC fractions 19-22 (run without detergent) on carbon-coated grids at 2-20 ug/ml; 0.75% uranyl formate pH 5.5 or methylamine vanadate pH 8.0.
The target is the same in test [3]. Described as above. This is another data set of the same source.
The target is the same in test [4]. As to the kind of experiment: SEC; Superdex200 column run in 2x PBS; gB773t also run in 2x PBS/0.5% octyl-glucoside after overnight incubation with the detergent.
Test [5] has the same target. As to the kind of experiment: cryo-EM structure; cryo-ET subtomogram averaging of gB730t trimers bound to liposomes (phosphatidylcholine:cholesterol 1.7:1), pH 5.5, protein ca. 1 mg/ml, 1 hr at 37 C; 786 particles, 2.7 nm.
The target in test [6] is HSV-1 glycoprotein B full-length ectodomain including the membrane proximal region, gB773t (residues 31-773) (herpes simplex virus type 1 (HSV-1)) (UniProt P06437). As to the kind of experiment: cryo-EM projection images; SEC fraction 22 (run without detergent) embedded in vitreous ice on holey carbon grids.
The target is the same in test [7]. As to the kind of experiment: negative stain EM; SEC fractions 19-22 (run without detergent) on carbon-coated grids at 2-20 ug/ml; 0.75% uranyl formate pH 5.5 or methylamine vanadate pH 8.0.

Take “HSV-1 glycoprotein B ectodomain lacking the membrane proximal region, gB730t (residues 31-730) (from UniProt P06437 31-730) (domain or fragment)”: the stoichiometry N stood at 3 in test [1]; 3 in test [2]; 6 in test [3]; 3 in test [4]; 3 in test [5].
On to “HSV-1 glycoprotein B full-length ectodomain including the membrane proximal region, gB773t (residues 31-773) (from UniProt P06437 31-773) (domain or fragment)”, for which the stoichiometry N in test [6] and in test [7] was 3 each time.
